Measured values published in publication PMC3946434.
Read-outs that look alike come from different tables or passages of the source.

Experiments:
Assay in all cases: AUC
[1] = biological target: HIV-1 capsid C-terminal domain construct CA144-231 (HIV-1) (UniProt P12493)
[2] = biological target: HIV-1 capsid C-terminal domain construct CA146-231 (HIV-1) (UniProt P12493)
[3] = biological target: HIV-1 capsid C-terminal domain construct CA146-231 (HIV-1) (UniProt P12493); remark: listed apart in the source
[4] = biological target: wild-type, full length HIV-1 capsid protein (CAFL, residues 1-231) (HIV-1) (UniProt P12493)

“HIV-1 capsid C-terminal domain construct CA144-231 (from UniProt P12493 276-363) (domain or fragment)” gave a Kd [1] of 16 µM.

Work on “HIV-1 capsid C-terminal domain construct CA146-231 (from UniProt P12493 278-363) (domain or fragment)” yielded a Kd [2] of 23 µM and a Kd [3] of 24 µM.

For “wild-type, full length HIV-1 capsid protein (CAFL, residues 1-231) (from UniProt P12493) (natural protein)”, the Kd [4] was 20 µM.
